{
  "source": "patent US20230109318A1",
  "about": "(OBLIQUE THERAPEUTICS, published 2023)",
  "binders": {"B1": {"name": "4B8-1 (antibody, V domains shown)", "VH": "EVQLQQSGPERVKPGASVKMSCKASGYTFTDYSMHWVKQSHGKSLEWIGYINPNNGGASYNQKFKGKATLTVNKSSSTAYMELRSLTSEDSAVYYCARGDYYGGGYWGQGTTLTVSS", "VL": "ENVLTQSPAIMSASPGEKVTMTCSASSSVSYMHWYQQKSSTSPKLWIYDTSKVASGVPGRFSGSGSGNSYSLTINSMEAEDVATYYCFQGSGYPLTFGAGTKLELK", "notes": "Mouse monoclonal IgG from a hybridoma, tested as hybridoma supernatant"}, "B2": {"name": "7D11-1 (antibody, V domains shown)", "VH": "QVQLQQPGAEFVKPGASVKLSCKASGYTFTRYWMHWVKQRPGRGLEWIGRIDPNSGGTTFNEKFKSKATLTVDKPSSTAYMQLSSLTSEDSAVYYCAREVGGYWGQGTTLTVSS", "VL": "B1 VL with S26G, S30D, V53L, N75S, K106R", "notes": "as for B1"}, "B3": {"name": "11D6-1 (antibody, V domains shown)", "VH": "EVQLQQSGPELVKPGASVKMSCKTSGYTFTDYTMHWVKQSHGKSLEWIGYINPNNGGTYYNQRFKGKATLTVSRSSSTAYIELRSLTSDDSAVYYCARGDYYGGGYWGQGTTLRVSS", "VL": "B1 VL with S26G, V53L, N75S, A99D", "notes": "as for B1"}, "B4": {"name": "7G2-1 (antibody, V domains shown)", "VH": "QVTLKESGPGILQPSQTLSLTCSFSGFSLSTFGMGVGWIRQPSGKGLEWLAHIWWDDDKNYNPALKSRLTISKDTSKNQVFFKIANVDTADTATYYCVQLSTMGDGGYWGQGTLVTVSA", "VL": "NIVMTQSPKSMSMSVGERVTLSCKASENVGTYVSWYQQKPGQSPKLLIYGASNRYTGVPDRFTGSGSGTDFILTISSVQAEDLADYHCGQSYNYPFTFGSGTKLEIK", "notes": "as for B1"}},
  "key": {"[1]": {"target": "T1, isolated G13D Ab1 peptide of SEQ ID NO:5 (human)", "T1 peptide": "CGAGDVGKSALTI-NH2", "assay": "ELISA, hybridoma supernatant on dilutions of the peptide, absorbance at 405 nm"}, "[2]": {"target": "T2, \"wild-type\" (WT) peptide having the amino acid sequence CGAGGVGKSALTI (SEQ ID NO:160)", "T2 peptide": "CGAGGVGKSALTI", "assay": "further ELISA on WT peptide; weaker than on the mutant peptide"}, "[3]": {"target": "T1, isolated G13D Ab1 peptide of SEQ ID NO:5", "assay": "further ELISA, mutant peptide compared with WT peptide"}},
  "note": "Residue numbers refer to the chain shown, from its start. No end group written: not given here.",
  "data": [
    {"binder": "B1", "values": [
      {"measurement": "binding result", "setting": "[1]", "value": "binds"},
      {"measurement": "binding result", "setting": "[2]", "value": "binds"}
    ]},
    {"binder": "B2", "values": [
      {"measurement": "binding result", "setting": "[1]", "value": "binds"},
      {"measurement": "binding result", "setting": "[2]", "value": "binds"}
    ]},
    {"binder": "B3", "values": [
      {"measurement": "binding result", "setting": "[3]", "value": "binds"},
      {"measurement": "binding result", "setting": "[2]", "value": "binds"}
    ]},
    {"binder": "B4", "values": [
      {"measurement": "binding result", "setting": "[1]", "value": "binds"}
    ]}
  ]
}
